Data as given in patent US20190330374A1 (IGM BIOSCIENCES, published 2019).

Columns and labels:
[1] = biological target: OX40 in the PathHunter U2OS OX40 Signaling Assay (DiscoverX) cells; experiment: cell-based or functional assay
[2] = biological target: T1, OX40 on activated T cells (PBMCs activated with Human T cell Activator Dynabeads) (human, UniProt P43489 29-277); experiment: flow cytometry on activated PBMC T cells
T1 construct: Native OX40 on donor PBMC T cells; also called OX40 on CD8+ T cells (low levels); OX40 on CD4+ T cells (high levels)
T1 sequence: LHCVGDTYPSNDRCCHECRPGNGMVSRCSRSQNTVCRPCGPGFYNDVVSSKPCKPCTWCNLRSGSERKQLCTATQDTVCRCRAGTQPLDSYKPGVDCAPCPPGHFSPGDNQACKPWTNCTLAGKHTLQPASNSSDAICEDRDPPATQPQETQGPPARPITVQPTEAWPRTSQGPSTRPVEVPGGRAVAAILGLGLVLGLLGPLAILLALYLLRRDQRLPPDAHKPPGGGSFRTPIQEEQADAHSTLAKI

| Binder | fold increase in NF-kB activation (RLU at the highest antibody concentration) compared to uncross-linked Anti-OX40 #1-IgG [1] [fold] | fold increase in signaling activation (RLU at the highest antibody concentration) compared to cross-linked Anti-OX40 #1-IgG [1] [fold] | binding result [2] |
| --- | --- | --- | --- |
| Anti-OX40 #1-IgM (antibody, V domains shown) VH: QVQLQESGPGLVKPSQTLSLTCAVYGGSFSSGYWNWIRKHPGKGLEYIGYISYNGITYHNPSLKSRITINRDTSKNQYSLQLNSVTPEDTAVYYCARYKYDYDGGHAMDYWGQGTLVTVSS VL: DIQMTQSPSSLSASVGDRVTITCRASQDISNYLNWYQQKPGKAPKLLIYYTSKLHSGVPSRFSGSGSGTDYTLTISSLQPEDFATYYCQQGSALPWTFGQGTKVEIK | 23 | 13 |  |
| Anti-OX40 #1-IgG (antibody, V domains shown, VH and VL put into an IgG format by standard cloning; It was detected with anti-human kappa light chain, so the light chain is kappa; also called anti-OX40 IgG #1) VH: QVQLQESGPGLVKPSQTLSLTCAVYGGSFSSGYWNWIRKHPGKGLEYIGYISYNGITYHNPSLKSRITINRDTSKNQYSLQLNSVTPEDTAVYYCARYKYDYDGGHAMDYWGQGTLVTVSS VL: DIQMTQSPSSLSASVGDRVTITCRASQDISNYLNWYQQKPGKAPKLLIYYTSKLHSGVPSRFSGSGSGTDYTLTISSLQPEDFATYYCQQGSALPWTFGQGTKVEIK |  |  | binds |
